Consider four molecules from patent US20210369842A1 (Genmab, published 2021).

Test [1] addresses T1, Human PD-L1 (human, UniProt Q9NZQ7 19-290).
T1 construct: Amino acids 1-18 are stated as the predicted signal peptide; also called CD274; B7H1
The experiment in a line: flow cytometry on MDA-MB-231 cells, PE-conjugated goat anti-human IgG F(ab')2 as secondary. On the procedure:
(§1) Cells (3-5×10⁴ cells/well) were incubated in polystyrene 96-well round-bottom plates (Greiner bio-one, cat. no. 650101) with serial dilutions of antibodies (range 0.0001 to 10 μg/mL in 5-fold dilution steps) in 50 μL PBS/0.1% BSA/0.02% azide (FACS buffer) at 4° C. for 30 min. After washing twice in FACS buffer, cells were incubated with secondary antibody at 4° C. for 30 min. As a secondary antibody, R-Phycoerythrin (PE)-conjugated goat-anti-human IgG F(ab′)₂ (Cat. no. 109-116-098, Jackson ImmunoResearch Laboratories, Inc., West Grove, Pa.) diluted 1:500 in 50 μL FACS buffer, was used for all experiments. Next, cells were washed twice in FACS buffer, re-suspended in 20 μL FACS buffer and analyzed on an iQue screener (Intellicyt Corporation, USA). Binding curves were analyzed using non-linear regression (sigmoidal dose-response with variable slope) using GraphPad Prism V75.04 software (GraphPad Software, San Diego, Calif., USA).

The target of test [2] is T1, Human PD-L1. Kind of test: flow cytometry on PC-3 cells, PE-conjugated goat anti-human IgG F(ab')2 as secondary. As to the method:
as §1
On the technique in general: In flow cytometry, cells or beads pass a laser one at a time.

The target in test [3] is T1, Human PD-L1. Kind of test: flow cytometry on SK-MES-1 cells, PE-conjugated goat anti-human IgG F(ab')2 as secondary. On the procedure:
as §1

In the next test the target is Human CD137 (human, UniProt Q07011 24-255). Kind of test: cell-based or functional assay.
Sequence of Human CD137 (Q07011 24-255): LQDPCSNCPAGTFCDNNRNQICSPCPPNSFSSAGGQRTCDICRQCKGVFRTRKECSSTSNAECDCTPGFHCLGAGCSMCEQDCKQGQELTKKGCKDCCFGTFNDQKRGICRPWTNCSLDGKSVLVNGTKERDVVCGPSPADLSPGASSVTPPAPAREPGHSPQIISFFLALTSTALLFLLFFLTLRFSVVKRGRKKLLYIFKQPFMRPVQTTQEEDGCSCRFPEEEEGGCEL
For test [4], the target named is T1, Human PD-L1. Kind of test: cell-based or functional assay.

Substitutions are numbered along the chain they refer to. Names may count otherwise.

T1 sequence (Q9NZQ7 19-290): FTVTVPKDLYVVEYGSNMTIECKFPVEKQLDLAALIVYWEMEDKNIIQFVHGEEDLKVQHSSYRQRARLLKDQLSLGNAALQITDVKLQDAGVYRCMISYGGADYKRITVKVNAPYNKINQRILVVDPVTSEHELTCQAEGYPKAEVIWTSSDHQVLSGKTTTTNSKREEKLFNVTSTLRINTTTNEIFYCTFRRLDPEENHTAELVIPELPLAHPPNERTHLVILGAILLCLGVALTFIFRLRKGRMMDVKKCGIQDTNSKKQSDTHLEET

B1: b12 (antibody, V domains shown)
VH: QVQLVQSGAEVKKPGASVKVSCQASGYRFSNFVIHWVRQAPGQRFEWMGWINPYNGNKEFSAKFQDRVTFTADTSANTAYMELRSLRSADTAVYYCARVGPYSWDDSPQDNYYMDVWGKGTTVIVSS
VL: EIVLTQSPGTLSLSPGERATFSCRSSHSIRSRRVAWYQHKPGQAPRLVIHGVSNRASGISDRFSGSGSGTDFTLTITRVEPEDFALYYCQVYGASSYTFGQGTKLERK
notes: also called monospecific, bivalent b12 antibody; gp120 specific antibody
On to B1, for which the binding result with Human PD-L1 [1] is on record as “no binding (tested: 10 µg/mL)”.

B2: PD-L1-547-FEAR (antibody, human IgG1, lambda, V domains shown)
VH: EVQLLEPGGGLVQPGGSLRLSCEASGSTFSTYAMSWVRQAPGKGLEWVSGFSGSGGFTFYADSVRGRFTISRDSSKNTLFLQMSSLRAEDTAVYYCAIPARGYNYGSFQHWGQGTLVTVSS
VL: SYVLTQPPSVSVAPGQTARITCGGNNIGSKSVHWYQQKPGQAPVLVVYDDNDRPSGLPERFSGSNSGNTATLTISRVEAGDEADYYCQVWDSSSDHVVFGGGTKLTVLG
notes: Human IgG1 lambda with L234F, L235E, D265A and K409R (FEAR)
In the case of B2, the “EC50 (read off the curve)” value with Human PD-L1 [2] is around 0.04 µg/mL; in the test with Human PD-L1 [3] it was around 0.1 µg/mL; in the test with Human PD-L1 [1], around 0.05 µg/mL.

B3: PD-L1-547-FEALxCD137-009-HC7LC2-FEAR (bispecific antibody, human IgG1, kappa, lambda)
heavy 1: EVQLLEPGGGLVQPGGSLRLSCEASGSTFSTYAMSWVRQAPGKGLEWVSGFSGSGGFTFYADSVRGRFTISRDSSKNTLFLQMSSLRAEDTAVYYCAIPARGYNYGSFQHWGQGTLVTVSSASTKGPSVFPLAPSSKSTSGGTAALGCLVKDYFPEPVTVSWNSGALTSGVHTFPAVLQSSGLYSLSSVVTVPSSSLGTQTYICNVNHKPSNTKVDKRVEPKSCDKTHTCPPCPAPEFEGGPSVFLFPPKPKDTLMISRTPEVTCVVVAVSHEDPEVKFNWYVDGVEVHNAKTKPREEQYNSTYRVVSVLTVLHQDWLNGKEYKCKVSNKALPAPIEKTISKAKGQPREPQVYTLPPSREEMTKNQVSLTCLVKGFYPSDIAVEWESNGQPENNYKTTPPVLDSDGSFLLYSKLTVDKSRWQQGNVFSCSVMHEALHNHYTQKSLSLSPGK
light 1: SYVLTQPPSVSVAPGQTARITCGGNNIGSKSVHWYQQKPGQAPVLVVYDDNDRPSGLPERFSGSNSGNTATLTISRVEAGDEADYYCQVWDSSSDHVVFGGGTKLTVLGQPKAAPSVTLFPPSSEELQANKATLVCLISDFYPGAVTVAWKADSSPVKAGVETTTPSKQSNNKYAASSYLSLTPEQWKSHRSYSCQVTHEGSTVEKTVAPTECS
heavy 2: EVQLVESGGGLVQPGRSLRLSCTASGFSLNDYWMSWVRQAPGKGLEWVGYIDVGGSLYYAASVKGRFTISRDDSKSIAYLQMNSLKTEDTAVYYCARGGLTYGFDLWGQGTLVTVSSASTKGPSVFPLAPSSKSTSGGTAALGCLVKDYFPEPVTVSWNSGALTSGVHTFPAVLQSSGLYSLSSVVTVPSSSLGTQTYICNVNHKPSNTKVDKRVEPKSCDKTHTCPPCPAPEFEGGPSVFLFPPKPKDTLMISRTPEVTCVVVAVSHEDPEVKFNWYVDGVEVHNAKTKPREEQYNSTYRVVSVLTVLHQDWLNGKEYKCKVSNKALPAPIEKTISKAKGQPREPQVYTLPPSREEMTKNQVSLTCLVKGFYPSDIAVEWESNGQPENNYKTTPPVLDSDGSFFLYSRLTVDKSRWQQGNVFSCSVMHEALHNHYTQKSLSLSPGK
light 2: DIVMTQSPSSLSASVGDRVTITCQASEDISSYLAWYQQKPGKAPKRLIYGASDLASGVPSRFSASGSGTDYTFTISSLQPEDIATYYCHYYATISGLGVAFGGGTKVEIKRTVAAPSVFIFPPSDEQLKSGTASVVCLLNNFYPREAKVQWKVDNALQSGNSQESVTEQDSKDSTYSLSSTLTLSKADYEKHKVYACEVTHQGLSSPVTKSFNRGEC
Turning to B3, in the test with Human CD137, the “EC50 value, CD8+ T-cell expansion (donor 1, 0.03 µg/ml anti-CD3)” value turned out to be 0.0122 µg/mL and the “EC50 value, CD8+ T-cell expansion (donor 2, 0.09 µg/ml anti-CD3)” value stood at 0.00689 µg/mL.

B4: b12-FEALxPD-L1-547-FEAR (bispecific antibody)
heavy 1: QVQLVQSGAEVKKPGASVKVSCQASGYRFSNFVIHWVRQAPGQRFEWMGWINPYNGNKEFSAKFQDRVTFTADTSANTAYMELRSLRSADTAVYYCARVGPYSWDDSPQDNYYMDVWGKGTTVIVSSASTKGPSVFPLAPSSKSTSGGTAALGCLVKDYFPEPVTVSWNSGALTSGVHTFPAVLQSSGLYSLSSVVTVPSSSLGTQTYICNVNHKPSNTKVDKRVEPKSCDKTHTCPPCPAPEFEGGPSVFLFPPKPKDTLMISRTPEVTCVVVAVSHEDPEVKFNWYVDGVEVHNAKTKPREEQYNSTYRVVSVLTVLHQDWLNGKEYKCKVSNKALPAPIEKTISKAKGQPREPQVYTLPPSREEMTKNQVSLTCLVKGFYPSDIAVEWESNGQPENNYKTTPPVLDSDGSFLLYSKLTVDKSRWQQGNVFSCSVMHEALHNHYTQKSLSLSPGK
light 1: EIVLTQSPGTLSLSPGERATFSCRSSHSIRSRRVAWYQHKPGQAPRLVIHGVSNRASGISDRFSGSGSGTDFTLTITRVEPEDFALYYCQVYGASSYTFGQGTKLERKRTVAAPSVFIFPPSDEQLKSGTASVVCLLNNFYPREAKVQWKVDNALQSGNSQESVTEQDSKDSTYSLSSTLTLSKADYEKHKVYACEVTHQGLSSPVTKSFNRGEC
heavy 2: B3 heavy 1 with L409F, K413R
light 2: B3 light 1
notes: also called monovalent PD-L1 antibody; monovalent PD-L1-control antibody
In the case of B4, the “EC50 (read off the curve); fold induction in the PD-1/PD-L1 inhibition bioassay, blocked partner human PD-1” value in the test with Human PD-L1 [4] was around 0.1 µg/mL. Also, the concentration for a half-maximal effect (EC50 (read off the curve)) with Human PD-L1 [2] was around 0.05 µg/mL; with Human PD-L1 [3], around 0.2 µg/mL; with Human PD-L1 [1], around 0.06 µg/mL.

The term EC50 (read off the curve) denotes the midpoint of the concentration-response curve. The low end stands for greater potency, the high end for weaker potency.
